In US20240182536A1 (MURAL ONCOLOGY, published 2024):

B1: yeast display IL-18 variant K53N, S55I (ligand)
chain: YFGKLESKLSVIRNLNDQVLFIDQGNRPLFEDMTDSDMRDNAPRTIFIISMYNDIQPRGMAVTISVKSEKISTLSSENKIISFKEMNPPDNIKDTKSDIIFFQRSVPGHDNKMQFESSSYEGYFLASEKERDLFKLILKKEDELGDRSIMFTVQNED
B2: yeast display IL-18 variant K53Y, S55Y (ligand)
chain: YFGKLESKLSVIRNLNDQVLFIDQGNRPLFEDMTDSDMRDNAPRTIFIISMYYDYQPRGMAVTISVKSEKISTLSSENKIISFKEMNPPDNIKDTKSDIIFFQRSVPGHDNKMQFESSSYEGYFLASEKERDLFKLILKKEDELGDRSIMFTVQNED
B3: yeast display IL-18 variant K53Y, S55G (ligand)
chain: YFGKLESKLSVIRNLNDQVLFIDQGNRPLFEDMTDSDMRDNAPRTIFIISMYYDGQPRGMAVTISVKSEKISTLSSENKIISFKEMNPPDNIKDTKSDIIFFQRSVPGHDNKMQFESSSYEGYFLASEKERDLFKLILKKEDELGDRSIMFTVQNED
B4: yeast display IL-18 variant K53W, S55A (ligand)
chain: YFGKLESKLSVIRNLNDQVLFIDQGNRPLFEDMTDSDMRDNAPRTIFIISMYWDAQPRGMAVTISVKSEKISTLSSENKIISFKEMNPPDNIKDTKSDIIFFQRSVPGHDNKMQFESSSYEGYFLASEKERDLFKLILKKEDELGDRSIMFTVQNED
B5: yeast display IL-18 variant K53Q, D54N, S55M, Q56H (ligand)
chain: YFGKLESKLSVIRNLNDQVLFIDQGNRPLFEDMTDSDMRDNAPRTIFIISMYQNMHPRGMAVTISVKSEKISTLSSENKIISFKEMNPPDNIKDTKSDIIFFQRSVPGHDNKMQFESSSYEGYFLASEKERDLFKLILKKEDELGDRSIMFTVQNED
B6: yeast display IL-18 variant T34I, S36V, D40I, N41M, K53G, S55Y (ligand)
chain: YFGKLESKLSVIRNLNDQVLFIDQGNRPLFEDMIDVDMRIMAPRTIFIISMYGDYQPRGMAVTISVKSEKISTLSSENKIISFKEMNPPDNIKDTKSDIIFFQRSVPGHDNKMQFESSSYEGYFLASEKERDLFKLILKKEDELGDRSIMFTVQNED
B7: yeast display IL-18 variant K53H, S55V (ligand)
chain: YFGKLESKLSVIRNLNDQVLFIDQGNRPLFEDMTDSDMRDNAPRTIFIISMYHDVQPRGMAVTISVKSEKISTLSSENKIISFKEMNPPDNIKDTKSDIIFFQRSVPGHDNKMQFESSSYEGYFLASEKERDLFKLILKKEDELGDRSIMFTVQNED
B8: yeast display IL-18 variant K53N, S55M, R104S, P107A (ligand)
chain: YFGKLESKLSVIRNLNDQVLFIDQGNRPLFEDMTDSDMRDNAPRTIFIISMYNDMQPRGMAVTISVKSEKISTLSSENKIISFKEMNPPDNIKDTKSDIIFFQSSVAGHDNKMQFESSSYEGYFLASEKERDLFKLILKKEDELGDRSIMFTVQNED
B9: yeast display IL-18 variant L5W, S7Y, K53H, S55M (ligand)
chain: YFGKWEYKLSVIRNLNDQVLFIDQGNRPLFEDMTDSDMRDNAPRTIFIISMYHDMQPRGMAVTISVKSEKISTLSSENKIISFKEMNPPDNIKDTKSDIIFFQRSVPGHDNKMQFESSSYEGYFLASEKERDLFKLILKKEDELGDRSIMFTVQNED
B10: yeast display IL-18 variant K53S, S55F, R104K, H109Y (ligand)
chain: YFGKLESKLSVIRNLNDQVLFIDQGNRPLFEDMTDSDMRDNAPRTIFIISMYSDFQPRGMAVTISVKSEKISTLSSENKIISFKEMNPPDNIKDTKSDIIFFQKSVPGYDNKMQFESSSYEGYFLASEKERDLFKLILKKEDELGDRSIMFTVQNED

Experiments:
[1] = molecular target: T1, human IL-18 binding protein (human, UniProt O95998 31-194); experiment: cell-based or functional assay
T1 sequence (looked up): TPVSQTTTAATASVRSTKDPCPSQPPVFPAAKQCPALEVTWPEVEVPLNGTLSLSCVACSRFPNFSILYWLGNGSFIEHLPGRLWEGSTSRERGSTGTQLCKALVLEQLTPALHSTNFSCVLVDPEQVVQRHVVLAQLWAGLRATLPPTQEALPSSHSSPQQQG

[2] = molecular target: T2, IL-18 receptors on HEK-Blue IL-18 reporter cells (UniProt Q13478 19-541; O95256 20-599, limits assumed); experiment: cell-based or functional assay
T2 sequence (looked up) 1: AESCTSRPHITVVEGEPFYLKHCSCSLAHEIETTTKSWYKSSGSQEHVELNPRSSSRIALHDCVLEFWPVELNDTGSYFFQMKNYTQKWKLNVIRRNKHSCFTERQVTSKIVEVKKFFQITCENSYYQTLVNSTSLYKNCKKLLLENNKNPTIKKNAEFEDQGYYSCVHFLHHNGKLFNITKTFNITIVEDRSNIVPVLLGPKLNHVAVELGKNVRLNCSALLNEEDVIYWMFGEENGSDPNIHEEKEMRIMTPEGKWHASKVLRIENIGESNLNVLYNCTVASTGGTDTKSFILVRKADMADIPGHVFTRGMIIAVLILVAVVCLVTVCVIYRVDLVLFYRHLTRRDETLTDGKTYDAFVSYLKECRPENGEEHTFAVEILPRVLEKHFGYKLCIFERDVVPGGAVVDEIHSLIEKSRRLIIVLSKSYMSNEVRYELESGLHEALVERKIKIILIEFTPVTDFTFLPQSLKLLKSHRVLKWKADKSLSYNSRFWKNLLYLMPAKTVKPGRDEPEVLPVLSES
T2 sequence (looked up) 2: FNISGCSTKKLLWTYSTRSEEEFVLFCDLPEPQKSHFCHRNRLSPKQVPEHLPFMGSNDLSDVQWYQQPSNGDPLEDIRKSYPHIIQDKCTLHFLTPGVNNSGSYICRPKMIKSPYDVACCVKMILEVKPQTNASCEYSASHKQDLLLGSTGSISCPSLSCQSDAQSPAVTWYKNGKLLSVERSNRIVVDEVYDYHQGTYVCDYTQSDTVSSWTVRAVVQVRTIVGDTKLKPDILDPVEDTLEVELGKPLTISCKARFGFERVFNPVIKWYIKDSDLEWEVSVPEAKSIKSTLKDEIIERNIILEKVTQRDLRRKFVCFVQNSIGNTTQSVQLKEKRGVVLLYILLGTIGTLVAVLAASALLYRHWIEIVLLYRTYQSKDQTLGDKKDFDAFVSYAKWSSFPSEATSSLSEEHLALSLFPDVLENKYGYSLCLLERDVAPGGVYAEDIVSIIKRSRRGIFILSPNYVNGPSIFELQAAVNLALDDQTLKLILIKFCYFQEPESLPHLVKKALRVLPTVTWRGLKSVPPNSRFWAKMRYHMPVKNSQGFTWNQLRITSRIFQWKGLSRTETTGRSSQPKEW

Binder	HEK-Blue activity, +100 nM BP, DF-10000 [1]	HEK-Blue activity, +100 nM BP, DF-100,000 [1]	HEK-Blue activity, +100 nM BP, DF-1,000,000 [1]	Ratio (-BP/+BP), DF-10000 [1]	Ratio (-BP/+BP), DF-100,000 [1]	Ratio (-BP/+BP), DF-1,000,000 [1]	HEK-Blue activity, No BP, DF-10000 [2]	HEK-Blue activity, No BP, DF-100,000 [2]	HEK-Blue activity, No BP, DF-1,000,000 [2]
B1	0.29	0.11	0.09	1.1	1	0.99	0.32	0.11	0.09
B2	0.24	0.14	0.21	1.57	1.21	0.57	0.38	0.17	0.12
B3	0.21	0.16	0.13	1.71	0.88	0.94	0.36	0.14	0.12
B4	0.31	0.16	0.13	0.89	0.84	0.84	0.28	0.13	0.11
B5	0.21	0.11	0.09	2.21	1.16	1.06	0.46	0.13	0.09
B6	0.21	0.1	0.09	1.46	1.11	1.52	0.3	0.11	0.14
B7	1.05	0.34	0.14	1.53	2.79	2.31	1.6	0.94	0.33
B8	0.15	0.12	0.11	5.37	1.93	1.08	0.8	0.24	0.12
B9	0.12	0.12	0.13	4.04	1.41	1.24	0.5	0.16	0.16
B10	0.14	0.09	0.09	3.08	1.18	0.95	0.43	0.11	0.09
